Assay results: the DeepSol protein solubility set

assay: soluble on expression in E. coli; label from the status in PepcDB or PDB records

Sequence	soluble on expression in E. coli
MSGPEELEAGASDSNAGGSSRQGQEQERVEPVLEGVPQPNDQESADEDLTARQPPIQPQVPNASDNLQVPPNLEYLIAVNPSQLITTIQIGAEVARLEELEDEYRQELELIRMTESLGEELLQKENELRSRAGYLGRLDVLENRRNYEDEAAENLAIRTVQNRVLLLRRARAELYERERIARKTFIWRLRRFKNPTDQSVNTWMETLNDRLNRVANSWERRREPHEQAIRDYERLVATRQRTEEDRRRERASNRAGPSNQEDYDSEDEDEHHVDELPDLLELLSLVVNPVIGGGGISTNRAEYLNPRGTEGLGADDPDLNDSGGTVYQSDEEESEDEAEIDHQEGPSNWRPKRPRRDDDEGGSGSSASMWNAPSTSSQALGRSC	not soluble
MGSDKIHHHHHHMIEANQILAKMKNQKINYDKVLRKIISQWERDGERPKILLHSCCAPCSTYTLEFLTQYADIAIYFANPNIHPKSEYLRRAKVQEQFVNDFNNKTGASVKYIEAEYEPHKFMKMAKDKGLTEEPEGGLRCTACFEMRLEIVAKAALEHGYDYFGSAITLSPKKNAQLINELGMDVQNIYNVKYLPSDFKKNKGYERSIEMCNDYNIFRQCYCGCVFAAMKQGIDFKQINKDAQAFLQQF	not soluble
MQVINLKYPVALSQIPEGPIVLALGFFDGVHRGHQQVVATARQAAQAQHAKLAVMTFDQHPSVVFKHTDPQQVRYLTTIDQKTALMSELGVDILYVLHFDATVGAMPPQTFVDQLIVGLHAQTVVAGFDYTYGPAEIANMQRLNDYGHNRFEIIEVPKAELDAEKISSTRIRRALDAGDIDTANRLLGYQYETAGEVVHGEARGRTLGFPTANVAHGPNTRVPGIGIYATMVQIGTRWVMGMASVGRNVTFGDHRPITVEIYLLDFRGDLYGHNLTVRWGHRMRGEIKFAGADALVAQLKRDEQNTRDYYVAHPFVVAPRIQVAQQSNRLEAQ	not soluble
MRKTKIVCTIGPASESEEMIEKLINAGMNVARLNFSHGSHEEHKGRIDTIRKVAKRLDKIVAILLDTKGPEIRTHNMKDGIIELERGNEVIVSMNEVEGTPEKFSVTYENLINDVQVGSYILLDDGLIELQVKDIDHAKKEVKCDILNSGELKNKKGVNLPGVRVSLPGITEKDAEDIRFGIKENVDFIAASFVRRPSDVLEIREILEEQKANISVFPKIENQEGIDNIAEILEVSDGLMVARGDMGVEIPPEKVPMVQKDLIRQCNKLGKPVITATQMLDSMQRNPRATRAEASDVANAIYDGTDAVMLSGETAAGLYPEEAVKTMRNIAVSAEAAQDYKKLLSDRTKLVETSLVNAIGISVAHTALNLNVKAIVAATESGSTARTISKYRPHSDIIAVTPSEETARQCSIVWGVQPVVKKGRKSTDALLNNAVATAVETGRVSNGDLIIITAGVPTGETGTTNMMKIHLVGDEIANGQGIGRGSVVGTTLVAETVKDLEGKDLSDKVIVTNSIDETFVPYVEKALGLITEENGITSPSAIVGLEKGIPTVVGVEKAVKNISNNMLVTIDAAQGKIFEGYANVL	not soluble
MSMENFAQLLEESFTLQEMNPGEVITAEVVAIDQNFVTVNAGLKSESLIDVAEFKNAQGEIEVKVGDFVTVTIESVENGFGETKLSREKAKRAADWIALEEAMENGDILSGIINGKVKGGLTVMISSIRAFLPGSLVDVRPVKDTSHFEGKEIEFKVIKLDKKRNNVVVSRRAVLEATLGEERKALLENLQEGSVIKGIVKNITDYGAFVDLGGIDGLLHITDLAWRRVKHPSEVLEVGQEVEAKVLKFDQEKQRVSLGMKQLGEDPWSGLTRRYPQGTRLFGKVSNLTDYGAFVEIEQGIEGLVHVSEMDWTNKNVHPSKVVQLGDEVEVMILEIDEGRRRISLGMKQCQANPWEEFAANHNKGDKISGAVKSITDFGVFVGLPGGIDGLVHLSDLSWTESGEEAVRKYKKGEEVEAVVLAIDVEKERISLGIKQLEGDPFGNFISVNDKGSLVKGSVKSVDAKGAVIALSDEVEGYLPASEFAADRVEDLTTKLKEGDEVEAVIVTVDRKNRSIKLSVKAKDAKESREALNSVNAAANANAGTTSLGDLLKAKLSGEQELEHHHHHH	soluble
SSTHGSRFPLCGGRRDHKGLTHIFNPPPKRFESILEGLFGPALLKDLSLFKDCEPESISDWTFDENCLFCCLRRDKVKGHLVGLDEPASGAGQEALLKQEQAKIIRFERQAEEFLNAVFYRKDSPWVSDPNIPLVAREIMQRMIQQFAAEYTSKNSSTQDPSQPNSTKNQSLPKASPVTTSPTAATTQNPVLSKLLMADQDSPLDLTVRKSQSEPSEQDGVLDLSTKKSPCAGSTSLSHSPGCSSTQGNGRPGRPSQYRPDGLRSGDGVPPRSLQDGTREGFGHSTSLKVPLARSLQISEELLSRNQLSTAASLGPSGLQNHGQHLILSREASWAKPHYEFNLSRMKFRGNGALSNISDLPFLAENSAFPKMALQAKQDGKKDVSHSSPVDLKIPQVRGMDLSWESRTGDQYSYSSLVMGSQTESALSKKLRAILPKQSRKSMLDAGPDSWGSDAEQSTSGQPYPTSDQEGDPGSKQPRKKRGRYRQYNSEILEEAISVVMSGKMSVSKAQSIYGIPHSTLEYKVKERLGTLKNPPKKKMKLMRSEGPDVSVKIELDPQGEAAQSANESKNE	soluble
MSLKQKSSGKSVIITGVTQGLGRAMVDRFHELGWNIYGCGRSKDKIEELKKYYGNTHVFQIIDVSDSQQVSDWANYILHRNRAPDLLINNASIVNKNAPLWKVTAEEFENVMNVNVNGVVNVIRAFVPAMVARKAGMIINMSSSWGREGEAELAPYCASKFAIEGITKSLALELPYSMAVVALDPGGSISTPMLYSCAPQYVNESPTPEMWSQHAIPYILKITIDKNGASLTCPECTEGHHHHHH	soluble
MARARARPGAVMSISGGLVRRRAEGRPLPAASAMSTVTLHRVLRASPERVYRAFLDAAALSKWLPPHGFTNTVEHLDARVGGTFRMAFTQFGSGQRHAFGGTYRELVPNALLRYDDVFDDPSLPGTLLTTVRLLPLPCGTDLHVVQEGIPEQIPLHACYLGWQESLTLLALLVEAQRAELEHHHHHH	not soluble
MSQHLVPEAKNGLSKFKNEVANEMGVPFSDYNGDLSSRQCGSVGGEMVKRMVEKYEQSMK	soluble
GPYATEVELREMVDIAQEHGIVEIEERRMIQSVFDLASTTVRQVMVPRPEMIWIESGKTAGQATALCVRSGHSRIPVIGENVDDIIGIVYLKDLVQKTYYATDGGKSVLVDEVMREATFVPDSKSLDALLQEMQEDHKHIAILVDEYGGVAGLISIEDILEEIVGEIADEYDAREVAPIEKIGDRTYRVVSRL	not soluble
MGSDKIHHHHHHMNLSRVGKHGTGMWNYSKNIADMLHESGFLDSIICSKDHVEYFSNRYKDPKVDIIITPEIVSNTMKVSKFRPLIWLSYSYFLGCKLVLSKKKKDVALLSTTHHSIPFFKNQFITIHDLRPAFYPDSKLQEIYFSHYLPRKVKELRGVFTVSETVKNEIEEHMGVARSDIQVVYNSVDPSLRPDGTDNSEQATIKNTFLMVGASWKHKNAHSFLKNFLAYHKDNYSAVIVCGQTDYFDELKSLVATLGLENNVTFKHHISEQELSSLYKTSFALVYPSLSEGFGIPPIEAMSLSLPVIVSDIPVFKEILGEAAVYVDPNVRESWEHAVDTLKVSRENVIDTGLQRVNLYSYERCKDMLMLALNNINEKSR	not soluble
MSKYLHSEKAYLDLINAVKDKFNYKKSVVPYIIYFLLKTGMRYGELIALTWEDIDFDKGIFKTYRRFNSETSQFVPPKNKTSIRIVPVDNECLEILKNLKIEQNQSNKELGLQNTNNMVFQHFGYPNSVPSTNGTNKVLRGIVQELNIEPIITTKGARHTYGSFLWHRGYDLGIIAKILGHKDISMLIEVYGHTLEEKIQEEYNEIKQLWLEHHHHHH	soluble
GSACELPECQEDAGNKVCSLQCNNHACGWDGGDCSLNFNDPWKNCTQSLQCWKYFSDGHCDSQCNSAGCLFDGFDCQRAEGQCNPLYDQYCKDHFSDGHCDQGCNSAECEWDGLDCAEHVPERLAAGTLVVVVLMPPEQLRNSSFHFLRELSRVLHTNVVFKRDAHGQQMIFPYYGDVRGSIVYLEIDNRQCVQASSQCFQSATDVAAFLGALASLGSLNIPYKIEAVQSETVEPANSHHHHHH	soluble
